From the supplement of paper PMC6757056
± gives the standard deviation of the averaged measurements.

B1: library; a variant is named by its letters at N, in order (parent)
chain: GCUGUCACCGGUGUAUUACCCUAGUGGUCGACCGGUCUGAUGAGUCUNNNNNNAGACGAAACAGC

Legend:
hypoxanthine [1] = variants of: B1; assay: normalized RNA/DNA level with ligand (relative to sTRSVctl = 100) (log10 (% of sTRSVctl)); ligand: hypoxanthine (xanthine aptamer); higher = less ribozyme self-cleavage, higher mRNA level; conditions: ligand concentration (+) RNA-Seq: 5 mM, HEK293T, reporter: mCherry (pCS4076), ligand present: yes
Method in brief: (§1)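 Library plasmids carrying ribozyme switches linked to mCherry, or to eGFP in some ligand experiments, were transfected into HEK293T at 4 µg per 6-well well, with any ligand added 1 h earlier. Seventy-two hours on, total RNA was extracted with EDTA and reverse-transcribed, amplified, barcoded and sequenced. RNA level was RNA over DNA reads normalized to a spiked-in non-cleaving sequence or to the top sequences, then scaled and log-transformed. The top set was 25 sequences, the transform was ×100 and log10, and sequences needed ≥100 DNA reads.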

hypoxanthine [2] = variants of: B1; assay: normalized RNA/DNA level without ligand (relative to sTRSVctl = 100) (log10 (% of sTRSVctl)); ligand: hypoxanthine (xanthine aptamer); higher = less ribozyme self-cleavage, higher mRNA level; conditions: HEK293T, reporter: mCherry (pCS4076), ligand present: no
Method in brief: as §1

Row | Variant | normalized RNA/DNA level with ligand (log10) (hypoxanthine [1]) | normalized RNA/DNA level without ligand (log10) (hypoxanthine [2])
1 | ACACGC | 1.94 ± 0.033 | 1.71 ± 0.03
2 | GCAACC | 1.93 ± 0.052 | 1.82 ± 0.03
3 | GCAACU | 1.97 ± 0.042 | 1.96 ± 0.028
4 | GCAACG | 1.9 ± 0.031 | 1.595 ± 0.0074
5 | GCACGU | 1.91 ± 0.053 | 1.73 ± 0.032
6 | GCACGC | 1.96 ± 0.06 | 1.86 ± 0.043
7 | GCACGA | 1.925 ± 0.0075 | 1.75 ± 0.077
8 | GCAGCU | 2.014 ± 0.019 | 1.95 ± 0.038
9 | GCAGCG | 1.97 ± 0.028 | 1.62 ± 0.042
10 | CCAAAG | 1.885 ± 0.013 | 1.58 ± 0.033
11 | CCAAAA | 1.92 ± 0.032 | 1.82 ± 0.052
12 | ACAGCU | 1.92 ± 0.027 | 1.87 ± 0.033
13 | ACAGCC | 1.97 ± 0.021 | 1.919 ± 0.01
14 | ACAGCA | 1.94 ± 0.032 | 1.81 ± 0.028
15 | CCAAGA | 1.945 ± 0.0033 | 1.82 ± 0.034
16 | CCAAGG | 1.83 ± 0.036 | 1.603 ± 0.013
17 | CCACCU | 2.033 ± 0.0077 | 1.93 ± 0.053
18 | CCACCG | 1.99 ± 0.028 | 1.84 ± 0.2
19 | CCACCA | 1.97 ± 0.026 | 1.88 ± 0.046
20 | GCAGUA | 1.948 ± 0.012 | 1.772 ± 0.0069
21 | GCAGUU | 1.9707 ± 0.00023 | 1.855 ± 0.015
22 | CCCAUA | 1.9 ± 0.06 | 1.89 ± 0.11
23 | CCCAUG | 1.933 ± 0.0045 | 1.81 ± 0.048

Row | Variant | normalized RNA/DNA level with ligand (log10) (hypoxanthine [1]) | normalized RNA/DNA level without ligand (log10) (hypoxanthine [2])
24 | CCCAUU | 2 ± 0.03 | 1.927 ± 0.0023
25 | GCAUCU | 1.98 ± 0.039 | 1.87 ± 0.004
26 | GCAUCC | 1.86 ± 0.069 | 1.82 ± 0.025
27 | GCAUCA | 1.94 ± 0.041 | 1.89 ± 0.035
28 | CAUUUU | 1.973 ± 0.0049 | 1.804 ± 0.0085
29 | CAUUUG | 1.98 ± 0.1 | 1.9 ± 0.049
30 | ACCCAG | 1.83 ± 0.03 | 1.48 ± 0.044
31 | ACCCAC | 1.921 ± 0.0048 | 1.792 ± 0.0063
32 | ACCCAU | 1.93 ± 0.026 | 1.79 ± 0.051
33 | ACCCAA | 1.896 ± 0.013 | 1.801 ± 0.013
34 | GCAUGA | 1.94 ± 0.042 | 1.71 ± 0.029
35 | GCAUGU | 1.9 ± 0.03 | 1.68 ± 0.043
36 | CCAUAA | 1.914 ± 0.01 | 1.8 ± 0.031
37 | CCAUAG | 1.894 ± 0.013 | 1.55 ± 0.06
38 | ACAGUG | 1.85 ± 0.039 | 1.35 ± 0.021
39 | ACAGUA | 1.908 ± 0.015 | 1.76 ± 0.029
40 | GCCAUU | 1.96 ± 0.013 | 1.918 ± 0.01
41 | GAUUUC | 1.972 ± 0.018 | 1.907 ± 0.012
42 | GAUUUU | 1.947 ± 0.0067 | 1.908 ± 0.0016
43 | CCACAA | 1.9686 ± 0.0014 | 1.8 ± 0.033
44 | CCACAC | 1.93 ± 0.067 | 1.777 ± 0.015
45 | CCACAG | 1.92 ± 0.04 | 1.66 ± 0.059
46 | CCACAU | 1.92 ± 0.11 | 1.79 ± 0.049

Row | Variant | normalized RNA/DNA level with ligand (log10) (hypoxanthine [1]) | normalized RNA/DNA level without ligand (log10) (hypoxanthine [2])
47 | GCAUUU | 1.922 ± 0.019 | 1.88 ± 0.042
48 | GCAUUC | 2 ± 0.023 | 1.81 ± 0.047
49 | GCAUUA | 1.92 ± 0.023 | 1.877 ± 0.01
50 | CCACUC | 2.02 ± 0.059 | 1.98 ± 0.036
51 | CCACUU | 1.94 ± 0.024 | 1.914 ± 0.019
52 | CCACUA | 1.97 ± 0.042 | 1.86 ± 0.071
53 | UCAAAC | 1.916 ± 0.0079 | 1.85 ± 0.03
54 | UAUUUG | 1.93 ± 0.039 | 1.78 ± 0.026
55 | UAUUUC | 1.974 ± 0.01 | 1.911 ± 0.019
56 | UAUUUU | 1.94 ± 0.044 | 1.86 ± 0.05
57 | UAUUUA | 1.93 ± 0.07 | 1.93 ± 0.053
58 | CCAACG | 1.924 ± 0.0039 | 1.859 ± 0.012
59 | CCAACA | 1.93 ± 0.022 | 1.883 ± 0.017
60 | CCAAUA | 1.899 ± 0.0083 | 1.8 ± 0.032
61 | CCAAUU | 1.924 ± 0.016 | 1.85 ± 0.028
62 | CCAAUC | 1.98 ± 0.032 | 1.94 ± 0.044
63 | GCAGGU | 1.93 ± 0.031 | 1.73 ± 0.056
64 | GCAGGC | 1.861 ± 0.0028 | 1.65 ± 0.036
65 | CCCACG | 1.917 ± 0.019 | 1.83 ± 0.029
66 | CCCACC | 2.01 ± 0.063 | 1.96 ± 0.032
67 | CCCACU | 1.96 ± 0.037 | 1.87 ± 0.022
68 | GCCACU | 1.99 ± 0.065 | 1.965 ± 0.0028
69 | GCCACG | 1.905 ± 0.0023 | 1.656 ± 0.0069

Row | Variant | normalized RNA/DNA level with ligand (log10) (hypoxanthine [1]) | normalized RNA/DNA level without ligand (log10) (hypoxanthine [2])
70 | GCCACC | 1.905 ± 0.011 | 1.834 ± 0.0019
71 | GCCACA | 1.958 ± 0.0033 | 1.871 ± 0.0054
72 | UCCACU | 1.957 ± 0.0089 | 1.99 ± 0.07
73 | UCCACC | 2.02 ± 0.029 | 1.931 ± 0.018
74 | UCCACA | 1.96 ± 0.037 | 1.835 ± 0.0089
75 | UCAAUA | 1.91 ± 0.049 | 1.76 ± 0.021
76 | UCAAUU | 1.96 ± 0.0097 | 1.89 ± 0.023
77 | UCAAUG | 1.85 ± 0.035 | 1.702 ± 0.0043
78 | GCCAGG | 1.872 ± 0.0046 | 1.43 ± 0.1
79 | GCCAGC | 1.97 ± 0.047 | 1.81 ± 0.055
80 | GCCAGA | 1.909 ± 0.0037 | 1.72 ± 0.056
81 | GCCAGU | 1.92 ± 0.06 | 1.79 ± 0.046
82 | UCAUUG | 1.91 ± 0.026 | 1.72 ± 0.043
83 | UCAUUC | 2.0015 ± 0.00059 | 1.9887 ± 0.00019
84 | UCAUUA | 1.927 ± 0.0081 | 1.884 ± 0.0033
85 | AAUUUA | 1.93 ± 0.047 | 1.828 ± 0.0075
86 | AAUUUU | 1.946 ± 0.013 | 1.886 ± 0.0096
87 | AAUUUC | 1.91 ± 0.0075 | 1.926 ± 0.0082
88 | GCAGAC | 1.89 ± 0.021 | 1.549 ± 0.0076
89 | UCACGG | 1.91 ± 0.043 | 1.79 ± 0.051
90 | UCACGU | 1.92 ± 0.042 | 1.78 ± 0.062
91 | UCACGA | 1.923 ± 0.011 | 1.8 ± 0.043
92 | UCACGC | 1.94 ± 0.033 | 1.78 ± 0.13

Row | Variant | normalized RNA/DNA level with ligand (log10) (hypoxanthine [1]) | normalized RNA/DNA level without ligand (log10) (hypoxanthine [2])
93 | ACCAGG | 1.832 ± 0.015 | 1.44 ± 0.064
94 | ACCAGC | 1.993 ± 0.0011 | 1.94 ± 0.043
95 | ACCAGA | 1.952 ± 0.009 | 1.77 ± 0.024
96 | UCAGGU | 1.87 ± 0.052 | 1.654 ± 0.0062
97 | UCAGGC | 1.96 ± 0.073 | 1.96 ± 0.03
98 | ACAGGC | 1.89 ± 0.1 | 1.72 ± 0.038
99 | UCACUC | 1.99 ± 0.02 | 2.03 ± 0.026
100 | UCACUU | 1.93 ± 0.043 | 1.88 ± 0.025
101 | UCACUA | 1.92 ± 0.051 | 1.83 ± 0.088
102 | UCCCAA | 1.918 ± 0.011 | 1.765 ± 0.0033
103 | UCCCAU | 1.93 ± 0.032 | 1.829 ± 0.0082
104 | UCCAUU | 1.959 ± 0.0064 | 1.89 ± 0.05
105 | UCCAUA | 1.899 ± 0.018 | 1.88 ± 0.024
106 | GCAAGC | 1.89 ± 0.074 | 1.575 ± 0.0013
107 | GCAAGU | 1.93 ± 0.036 | 1.69 ± 0.043
108 | GCAAGG | 1.84 ± 0.04 | 1.35 ± 0.032
109 | ACCCCA | 1.96 ± 0.031 | 1.86 ± 0.062
110 | ACAGAC | 1.92 ± 0.078 | 1.838 ± 0.0042
111 | ACAGAA | 1.922 ± 0.012 | 1.7472 ± 0.0012
112 | UCACAG | 1.87 ± 0.033 | 1.56 ± 0.056
113 | UCACAA | 1.92 ± 0.061 | 1.75 ± 0.019
114 | UCACAC | 1.94 ± 0.088 | 1.741 ± 0.015
115 | AAUUGC | 1.905 ± 0.013 | 1.82 ± 0.046
